One may read the IC50 as the point on the concentration scale where inhibition reaches its midpoint. A low value points to greater potency.

The results in this text go back to patent US12365904B2, “Thrombin binding circular aptamer and use thereof” (Hefei University of Technology, priority 2019, dated 2025).

One data set deals with thrombin (Homo sapiens, UniProt P00734). The experiment in a line: Inhibition of thrombin-catalyzed conversion of fibrinogen to fibrin, absorbance at 350 nm. In kind it is biochemical. The conditions noted are these: for IC50: thrombin concentration of 0.1 nM, fibrinogen 2 μM. The protocol:
Thrombin (0.1 nM) and fibrinogen (2 μM) were incubated with TBCA and Lib of different concentrations separately in buffer systems (total reaction volume of 100 μL) for a certain amount of time (till reaction equilibrium was reached), and the IC50 values of TBCA and Lib were calculated by fitting of the absorbance of the reaction system measured at 350 nm on a microplate reader.
The inhibition of thrombin-catalyzed conversion of fibrinogen to fibrin by TBCA and the random circular nucleic acid (Lib) was compared.
Thrombin (0.1 nM) and fibrinogen (2 μM) were incubated with TBCA, M1, M2, M3, M4, M5, D1, D2 and D3 of different concentrations separately in buffer systems (total reaction volume of 100 μL) for a certain amount of time (till reaction equilibrium was reached), and the IC50 values of TBCA, M1, M2, M3, M4, M5, D1, D2 and D3 were calculated by fitting of the absorbance of the reaction system measured at 350 nm on a microplate reader.

Data set [1] in a line: Incubation in 50% serum at 37° C., electrophoresis, gray values of bands (biostability, half-life). To be noted: 0.5 μM. It counts as in vitro ADME. As for the experimental part:
Incubation of 0.5 μM of TBCA and TBA each (nucleotide sequences thereof are shown in SEQ ID NO:1 and SEQ ID NO:2, respectively) was performed in 50% serum at a temperature of 37° C. Samples were taken for electrophoresis at 0 min, 1 min, 2 min, 5 min, 10 min, 30 min, 60 min (1 h), 120 min (2 h), 240 min (4 h), 480 min (8 h), 720 min (12 h) and 1440 min (24 h), respectively.

“D3: Deletion variant of TBCA, SEQ ID NO:10 (DNA ATCTCGACTAGTCATAGGGGGCGCGAACATACGCGGTTGGTGTGGTTGGCTGACAA; DNA, backbone and methylation of C not given here; further chemistry not fully specified)” yielded an IC50 in the data set with thrombin of 130 pM.
Take “TBA: Existing thrombin binding aptamer, 5′-GGTTGGTGTGGTTGG-3′, specifically targets α-thrombin [reference compound]”: the half-life entry in data set [1] is “approximately 2 min”. The IC50 in the data set with thrombin worked out at 1300 pM.

B1: TBCA: Circular DNA aptamer, SEQ ID NO:1, 5′ end and 3′ end connected to form a ring (nucleic acid)
DNA: ATCTCGACTAGTCATAGGGGGCGCGAACATACGCGGTTGGTGTGGTTGGCTGACAATACTCGTTTTTGGTGTCTCGGAT
modifications: DNA, backbone and methylation of C not given here; circular: 5' and 3' ends joined to form a ring
In the case of B1, the half-life result in data set [1] is recorded as “about 8 hours”; in data set [1] (listed as thrombin binding circular aptamer), “up to 8 hours”. In addition, in the data set with thrombin (thrombin 0.1 nM, ratio of IC50 values, TBCA vs Argatroban), the “inhibition effect on thrombin relative to Argatroban” value is on record as 30 times. For the same molecule, the “inhibition effect on thrombin relative to TBA” value in the data set with thrombin (thrombin 0.1 nM, ratio of IC50 values, TBCA vs TBA) was determined as 13 times. This molecule also gave an IC50 with thrombin of 150 pM.

B2: M3: Substitution variant of TBCA, SEQ ID NO:5, N is a random nucleotide (nucleic acid)
DNA: ATCTCGACTAGTCATAGGGGGCGCGAACATACGCGGTTGGTGTGGTTGGCTGACAANNNNNNNTTTTGGTGTCTCGGAT
modifications: DNA, backbone, methylation of C and the base at N not given here; circular: 5' and 3' ends joined to form a ring
As for B2, in the data set with thrombin, the IC50 worked out at 180 pM.

B3: M4: Substitution variant of TBCA, SEQ ID NO:6, N is a random nucleotide (nucleic acid)
DNA: ATCTCGACTAGTCATAGGGGGCGCGAACATACGCGGTTGGTGTGGTTGGCTGACAATACTCGTNNNNNNNGTCTCGGAT
modifications: DNA, backbone, methylation of C and the base at N not given here; circular: 5' and 3' ends joined to form a ring
In the data set with thrombin, B3 yielded an IC50 of 100 pM. Compared with the last molecule, the IC50 is about 1.8-fold lower.

B4: M1: Substitution variant of TBCA, SEQ ID NO:3, N is a random nucleotide (nucleic acid)
DNA: NNNNNNNCTAGTCATAGGGGGCGCGAACATACGCGGTTGGTGTGGTTGGCTGACAATACTCGTTTTTGGTGTCTCGGAT
modifications: DNA, backbone, methylation of C and the base at N not given here; circular: 5' and 3' ends joined to form a ring
Molecule B4 showed an IC50 with thrombin of 370 pM.

B5: M2: Substitution variant of TBCA, SEQ ID NO:4, N is a random nucleotide (nucleic acid)
DNA: ATCTCGANNNNNNNTAGGGGGCGCGAACATACGCGGTTGGTGTGGTTGGCTGACAATACTCGTTTTTGGTGTCTCGGAT
modifications: DNA, backbone, methylation of C and the base at N not given here; circular: 5' and 3' ends joined to form a ring
Turning to B5, the IC50 with thrombin was determined as 360 pM.

B6: M5: Substitution variant of TBCA, SEQ ID NO:7, N is a random nucleotide (nucleic acid)
DNA: ATCTCGACTAGTCATAGGGGGCGCGAACATACGCGGTTGGTGTGGTTGGCTGACAATACTCGTTTTTGGTNNNNNNNNN
modifications: DNA, backbone, methylation of C and the base at N not given here; circular: 5' and 3' ends joined to form a ring
B6 displayed an IC50 with thrombin of 110 pM.

B7: D1: Deletion variant of TBCA, SEQ ID NO:8 (nucleic acid)
DNA: ATCTCGACTAGTCATAGGGGGCGCGAACATACGCGGTTGGTGTGGTTGGCTGACAATACTCGTGTCTCGGAT
modifications: DNA, backbone and methylation of C not given here; further chemistry not fully specified
B7 displayed an IC50 with thrombin of 150 pM.

B8: D2: Deletion variant of TBCA, SEQ ID NO:9 (nucleic acid)
DNA: ATCTCGACTAGTCATAGGGGGCGCGAACATACGCGGTTGGTGTGGTTGGCTGACAATACTCGT
modifications: DNA, backbone and methylation of C not given here; further chemistry not fully specified
In the data set with thrombin, B8 gave an IC50 of 90 pM.
